Patent publication US20060058231A1 (Xencor, published 2006)
Numbering of substitutions follows the chain as printed. In names and notes the source's numbering stands. Values belong to the binder of their own block, whether it stands above or below them.

Experiments:
[1] = target: T1, BMPRIb receptor/Fc fusion (R&D Systems) (UniProt O00238 14-126); experiment: plate direct binding assay (ELISA-like): BMP-7 captured by anti-BMP-7 antibody, receptor-Fc titrated (x axis Receptor, ug/mL), anti-human IgG-HRP, absorbance 450 nm
T1 construct: also called ALK-6; not shown: Fc portion of the fusion
T1 sequence (looked up): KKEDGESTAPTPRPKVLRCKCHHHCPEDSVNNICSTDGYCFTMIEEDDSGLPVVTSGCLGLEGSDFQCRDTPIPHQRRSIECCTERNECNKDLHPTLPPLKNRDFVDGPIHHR

[2] = target: T2, BMPRII receptor/Fc fusion (R&D Systems) (UniProt Q13873 27-151, limits assumed); experiment: as above
T2 construct: not shown: Fc portion of the fusion
T2 sequence (looked up): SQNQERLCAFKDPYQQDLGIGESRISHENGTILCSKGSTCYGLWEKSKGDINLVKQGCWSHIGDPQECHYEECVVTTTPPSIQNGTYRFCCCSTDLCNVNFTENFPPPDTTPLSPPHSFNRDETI

[3] = target: T3, BMPRIa receptor/Fc fusion (R&D Systems) (UniProt P36894 24-152); experiment: as above
T3 construct: also called ALK-3; not shown: Fc portion of the fusion

[4] = target: T4, ActRIIa receptor/Fc fusion (R&D Systems) (UniProt P27037 20-134, limits assumed); experiment: as above
T4 construct: not shown: Fc portion of the fusion

[5] = target: T5, BMPRII Fc fusion (R&D Systems) (UniProt Q13873 27-151, limits assumed); experiment: AlphaScreen competition against biotinylated Y65N/S120D BMP-7
T5 construct: Bought receptor/Fc fusion; not shown: Fc part of the bought fusion
T5 sequence (looked up): T2 sequence (looked up)
Procedure: (§1) The Y65N/S120D variant of BMP-7 was also biotinylated for use in AlphaScreen assays using NHS-biotin. Bioactivity of the biotinylated protein was confirmed. AlphaScreen assays were performed to determine the binding affinity of selected BMP-7 variants for Fc fusions of the receptors BMPRIa, BMPRIb, ActRIIa, and BMPRII and the inhibitor noggin (R&D Systems). AlphaScreen assays were also performed to determine the affinity of selected variants for an anti-BMP-7 monoclonal antibody (R&D Systems mAb 3541). In all cases, 12-point binding curves were obtained in triplicate. Each data point corresponds to the luminescence produced from a solution comprising 10 uL of serially diluted BMP-7 variant, 10 uL receptor, inhibitor, or antibody, 10 uL biotinylated BMP-7, 10 uL AlphaScreen™ acceptor beads, and 10 uL AlphaScreen™ donor beads. Prism was used to calculate EC50 values for selected experiments.

[6] = target: T6, noggin Fc fusion (R&D Systems) (UniProt Q13253 28-232, limits assumed); experiment: as above
T6 construct: Bought noggin/Fc fusion; not shown: Fc part of the bought fusion
T6 sequence (looked up): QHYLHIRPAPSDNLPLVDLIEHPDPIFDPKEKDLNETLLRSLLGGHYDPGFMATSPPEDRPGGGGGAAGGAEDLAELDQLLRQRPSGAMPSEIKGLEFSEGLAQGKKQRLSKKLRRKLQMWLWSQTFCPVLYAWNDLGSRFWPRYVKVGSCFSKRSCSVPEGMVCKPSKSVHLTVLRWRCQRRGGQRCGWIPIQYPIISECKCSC
Procedure: as §1

[7] = target: T7, BMPRIb Fc fusion (R&D Systems) (UniProt O00238 14-126); experiment: as above
T7 construct: Bought receptor/Fc fusion; also called ALK-6; not shown: Fc part of the bought fusion
T7 sequence (looked up): T1 sequence (looked up)
Procedure: as §1

[8] = target: T8, ActRIIa Fc fusion (R&D Systems) (UniProt P27037 20-134, limits assumed); experiment: as above
T8 construct: Bought receptor/Fc fusion; not shown: Fc part of the bought fusion
Procedure: as §1

[9] = target: T5, BMPRII Fc fusion (R&D Systems); experiment: AlphaScreen competition; EC50 relative to wild type BMP-7 (R&D Systems)
Procedure: as §1

[10] = target: T6, noggin Fc fusion (R&D Systems); experiment: as above
Procedure: as §1

[11] = target: T7, BMPRIb Fc fusion (R&D Systems); experiment: as above
Procedure: as §1

[12] = target: T8, ActRIIa Fc fusion (R&D Systems); experiment: as above
Procedure: as §1

[13] = target: T4, ActRIIa receptor/Fc fusion (R&D Systems); experiment: plate direct binding assay, receptor-Fc detection, 12-point dilution of conditioned media
Procedure: (§2) The affinity of human and variant BMP-7 for several BMP receptors (ActRIa, BMPRIb, ActRIIa, and BMPRII) was measured using an ELISA-like assay, described below. 96-well plates were coated with a capture antibody (R&D Systems BMP-7 ELISA Duoset DY354, part #840971) by diluting the antibody to 2 μg/mL in PBS, applying 50 μL/well, and incubating overnight or over the weekend at 4° C., in a humidified chamber. Excess liquid was removed from each plate. The plates were blocked by adding 175 μL blocking solution (1% BSA and 5% sucrose in PBS) to each well and incubating 1-2 hours at room temperature in a humidified chamber. The plates were then washed using an automated plate washer. 50 μL of BMP-7 containing solution (for example, diluted conditioned media obtained from the BMP-7 expression protocol above, or purified recombinant human BMP-7 of a known concentration) was added to each well and incubated 1.5-2 hours at room temperature in a humidified chamber. The plates were then washed using an automated plate washer. 50 μL of 5 μg/mL BMP receptor-Fc fusion in PBS was added to each well and incubated 1.5 hours at room temperature in a humidified chamber. The plates were then washed using an automated plate washer. 50 μL of 1:10,000 diluted anti-human IgG-HRP conjugate in secondary antibody dilution buffer (1% BSA in PBS, filtered through a 0.2 […] filter) was added to each well and incubated 30 minutes at room temperature in a humidified chamber. The plates were then washed using an automated plate washer. 50 μL of pre-mixed TMB substrate (BD Pharmingen #555214) was added to each well and incubated for 10-20 minutes at room temperature in the dark. 25 μL of 2N H₂SO₄ was added to each well. Absorbance readings at 450 nm were taken using a 540 nm wavelength correction.
(§3) To further characterize receptor binding, dose-response binding assays, using 12-point serial dilutions from conditioned media, were conducted for selected Library 1 variants.

[14] = target: T3, BMPRIa receptor/Fc fusion (R&D Systems); experiment: fluorescence anisotropy, labeled BMP-7 added to serial dilutions of receptor/Fc fusion (x axis [receptor] uM)
Procedure: (§4) The binding of selected variants to BMP receptors, antibodies, and inhibitors was characterized using a fluorescence binding assay and the AlphaScreen™ assay. […] Small-scale (25 uL) reactions were performed using 15 uM BMP-7 and dye concentrations ranging from 0.3 uM to 1000 uM. […] The reaction was quenched with Tris pH 8.0 and cleaned up using a PD-10 desalt column; the second fraction was used in the experiments described below. BMP-7 was also labeled with C6-FXS, a FITC-derived fluorophore with a 6-carbon spacer between the fluor and the NHS group. Labeling conditions with various ratios of protein to dye were tested, in 20 mM PO4, 500 mM NaCl, pH 7 solution. After establishing labeling conditions, 500 ug Y65N/S120D was labeled. Excess dye was removed by centrifugation and a PD-10 desalt column.
(§5) The flourescently labeled BMP-7 was added to serial dilutions of receptor/Fc fusions of the BMP-7 receptors ActRIa, BMPRIa, BMPRIb, ActRIIa, ActRIIb, and BMPRII (R&D Systems). Experiments were also performed in which the fluorescently labeled BMP-7 was added to serial dilutions of noggin/Fc or gremlin (R&D Systems). The labeled BMP-7 and receptor or inhibitor was allowed to incubate, and the fluorescence polarization and intensity was measured using a TopCount plate reader.

[15] = target: T9, ActRIIb receptor/Fc fusion (R&D Systems) (UniProt Q13705 19-134, limits assumed); experiment: as above
T9 construct: not shown: Fc portion of the bought fusion
Procedure: as §4, §5

[16] = target: T4, ActRIIa receptor/Fc fusion (R&D Systems); experiment: as above
Procedure: as §4, §5

[17] = target: T2, BMPRII receptor/Fc fusion (R&D Systems); experiment: plate direct binding assay, receptor-Fc detection, 12-point dilution of conditioned media
Procedure: as §2, §3

T8 sequence (P27037 20-134 limits assumed): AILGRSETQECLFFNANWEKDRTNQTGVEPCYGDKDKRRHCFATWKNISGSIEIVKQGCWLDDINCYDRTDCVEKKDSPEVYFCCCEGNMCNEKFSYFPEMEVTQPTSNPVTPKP
T4 sequence (P27037 20-134 limits assumed): as above
T3 sequence (P36894 24-152 limits assumed): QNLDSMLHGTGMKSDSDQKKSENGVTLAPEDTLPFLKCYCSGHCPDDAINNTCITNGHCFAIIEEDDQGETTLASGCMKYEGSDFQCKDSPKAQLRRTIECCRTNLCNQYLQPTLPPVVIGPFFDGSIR
T9 sequence (Q13705 19-134 limits assumed): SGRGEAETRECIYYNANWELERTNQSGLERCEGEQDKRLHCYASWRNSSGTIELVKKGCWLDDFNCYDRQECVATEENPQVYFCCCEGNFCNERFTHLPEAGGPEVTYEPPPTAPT

B1: wild type human BMP-7 (Image clone) (ligand)
chain: STGGKQRSQNRSKTPKNQEALRMASVAENSSSDQRQACKKHELYVSFRDLGWQDWIIAPEGYAAYYCEGECAFPLNSYMNATNHAIVQTLVHFINPETVPKPCCAPTQLNAISVLYFDDSSNVILKKYRNMVVRACGCH
notes: The pro-protein is processed to a dimeric mature BMP-7; also called WT; wild-type BMP-7
EC50 (read off the curve) [1]: ~0.7 µg/mL
EC50 (read off the curve) [2]: ~1 µg/mL
EC50 (read off the curve) [3]: ~1 µg/mL
EC50 (read off the curve) [4]: ~0.2 µg/mL

B2: wild type human BMP-7 (R&D Systems) (ligand)
chain: B1 chain
notes: Bought recombinant protein; It describes BMPs as dimers; also called wt; recombinant human BMP-7
EC50 [5]: 0.23 µg/mL
EC50 [6]: 2.85 µg/mL
EC50 [7]: 0.0499 µg/mL
EC50 [8]: 0.107 µg/mL

B3: BMP-7 variant 526 (K39S/S120D/R134E) (ligand)
chain: B1 chain with K39S, S120D, R134E
notes: Expressed from the full-length Image clone and processed to the mature dimer; Purified from conditioned media on SP-sepharose; also called v526
Fold change vs. wt [9]: 0.607 fold
Fold change vs. wt [10]: 5.83 fold
Fold change vs. wt [11]: 0.727 fold
Fold change vs. wt [12]: 0.416 fold
EC50 [5]: 0.139 µg/mL
EC50 [6]: 16.7 µg/mL
EC50 [7]: 0.0363 µg/mL
EC50 [8]: 0.0445 µg/mL

B4: BMP-7 variant Q53G (ligand)
chain: B1 chain with Q53G
fold increased affinity relative to wild type [13]: ~10 fold

B6: BMP-7 variant M23N (ligand)
chain: B1 chain with M23N
fold increased affinity relative to wild type [13]: ~10 fold

B9: BMP-7 variant I86D (ligand)
chain: B1 chain with I86D
fold reduced affinity relative to wild type [17]: ~10 fold

Continued, values first:

EC50 (read off the curve) [14]: ~1000 nM
EC50 (read off the curve) [15]: ~2000 nM
EC50 (read off the curve) [16]: ~3000 nM
B5: FXS labeled BMP7 (ligand)
BMP-7 mature domain: B1 chain with Y65N, S120D
modifications: labeled with C6-FXS (FITC-derived NHS fluorophore); labeled sites not given
notes: the C6-FXS form of the labeled BMP-7 that the list holds jointly as 1.m9; also called BMP-7 variant Y65N/S120D labeled with C6-FXS

fold reduced affinity relative to wild type [17]: ~10 fold
B7: BMP-7 variant Q53H (ligand)
chain: B1 chain with Q53H

Fold change vs. wt [9]: 0.969 fold
Fold change vs. wt [10]: 1.19 fold
Fold change vs. wt [11]: 0.371 fold
Fold change vs. wt [12]: 0.445 fold
EC50 [5]: 0.222 µg/mL
EC50 [6]: 3.4 µg/mL
EC50 [7]: 0.0185 µg/mL
EC50 [8]: 0.0475 µg/mL
B8: BMP-7 variant 504 (Y65N/S120D) (ligand)
chain: B1 chain with Y65N, S120D
notes: Expressed from the full-length Image clone and processed to the mature dimer; Purified from conditioned media on SP-sepharose; also called v504

Fold change vs. wt [9]: 1.78 fold
Fold change vs. wt [10]: 0.137 fold
Fold change vs. wt [11]: 0.448 fold
Fold change vs. wt [12]: 0.397 fold
EC50 [5]: 0.409 µg/mL
EC50 [6]: 0.392 µg/mL
EC50 [7]: 0.0224 µg/mL
EC50 [8]: 0.0424 µg/mL
B10: BMP-7 variant 565 (Y65N/F93T/R129D) (ligand)
chain: B1 chain with Y65N, F93T, R129D
notes: Expressed from the full-length Image clone and processed to the mature dimer; Purified from conditioned media on SP-sepharose; also called v565
